# Square brackets hold non-standard residues; d marks the D form. Primed or numbered codes have the meaning given here. Phe(4-CF3) = N[C@@H](Cc1ccc(C(F)(F)F)cc1)C(=O)O; dPro(cis-4-NH2) = N[C@H]1CN[C@@H](C(=O)O)C1; Pro(3S-OH) = O=C(O)[C@H]1NCC[C@@H]1O; Tic = O=C(O)[C@@H]1Cc2ccccc2CN1; aThr = C[C@H](O)[C@H](N)C(=O)O; Orn(A56) = not defined here; Orn(Ar2) = not defined here; hSer = N[C@@H](CCO)C(=O)O; Orn = NCCC[C@H](N)C(=O)O; dPip′ = not defined here; A56 = not defined here; Ar7 = not defined here; Tiq = not defined here
# B1: cyclo(-Ile-^DArg-Arg-Phe(4CF3)-^DPro-Thr-) (peptide)
# peptide: cyclo(I[dR]R[Phe(4-CF3)][dP]T)
# SMILES: CC[C@H](C)[C@@H]1NC(=O)[C@H]([C@@H](C)O)NC(=O)[C@H]2CCCN2C(=O)[C@H](Cc2ccc(C(F)(F)F)cc2)NC(=O)[C@H](CCCNC(=N)N)NC(=O)[C@@H](CCCNC(=N)N)NC1=O
# B2: cyclo(-Trp-^DPhe-Trp-Orn(A56)-^DPro((4R)NH2)-Tic-) (peptide)
# peptide: cyclo(W[dF]W[Orn](A56)[dPro(cis-4-NH2)][Tic])
# modifications: reading uncertain; also: printed as cyclo(-Trp-^DPhe-Trp-Orn(A56)-^DPro((4R)NH2)-Tic-)
# B3: cyclo(-Ile-^DArg-Arg-Trp-^DPro-hSer-) (peptide)
# peptide: cyclo(I[dR]RW[dP][hSer])
# SMILES: CC[C@H](C)[C@@H]1NC(=O)[C@H](CCO)NC(=O)[C@H]2CCCN2C(=O)[C@H](Cc2c[nH]c3ccccc23)NC(=O)[C@H](CCCNC(=N)N)NC(=O)[C@@H](CCCNC(=N)N)NC1=O
# B4: cyclo(-Ile-^DArg-Arg-Trp-^DPro-alloThr-) (peptide)
# peptide: cyclo(I[dR]RW[dP][aThr])
# SMILES: CC[C@H](C)[C@@H]1NC(=O)[C@H]([C@H](C)O)NC(=O)[C@H]2CCCN2C(=O)[C@H](Cc2c[nH]c3ccccc23)NC(=O)[C@H](CCCNC(=N)N)NC(=O)[C@@H](CCCNC(=N)N)NC1=O
# B5: cyclo(-Orn(Ar2)-^DPhe-Trp-Arg-^DPro((4R)NH2)-Tic-) (peptide)
# peptide: cyclo([Orn(Ar2)][dF]WR[dPro(cis-4-NH2)][Tic])
# modifications: reading uncertain; also: printed as cyclo(-Orn(Ar2)-^DPhe-Trp-Arg-^DPro((4R)NH2)-Tic-)
# B6: cyclo(-Trp-^DPhe-Trp-Orn(A56)-^DPro((4R)NH2)-Tiq-) (peptide)
# peptide: cyclo(W[dF]W[Orn](A56)[dPro(cis-4-NH2)][Tiq])
# modifications: reading uncertain; also: printed as cyclo(-Trp-^DPhe-Trp-Orn(A56)-^DPro((4R)NH2)-Tiq-)
# B7: cyclo(-Orn(A56)-^DPhe-Trp-Arg-^DPro((4R)NH2)-Tic-) (peptide)
# peptide: cyclo([Orn(A56)][dF]WR[dPro(cis-4-NH2)][Tic])
# modifications: reading uncertain; also: printed as cyclo(-Orn(A56)-^DPhe-Trp-Arg-^DPro((4R)NH2)-Tic-)
# B8: cyclo(-Trp-^DPhe-Trp-Orn(A56)-^DPip-Pro((3S)OH)-) (peptide)
# peptide: cyclo(W[dF]W[Orn](A56)[dPip′][Pro(3S-OH)])
# modifications: reading uncertain; also: printed as cyclo(-Trp-^DPhe-Trp-Orn(A56)-^DPip-Pro((3S)OH)-)
# B9: cyclo(-Trp-^DPhe-Trp-Orn(Ar7)-^DPro((4R)NH2)-Tic-) (peptide)
# peptide: cyclo(W[dF]W[Orn](Ar7)[dPro(cis-4-NH2)][Tic])
# modifications: reading uncertain; also: printed as cyclo(-Trp-^DPhe-Trp-Orn(Ar7)-^DPro((4R)NH2)-Tic-)
# B10: cyclo(-Ala(Tet)-^DPhe-Trp-Arg-^DPro((4R)NH2)-Tic-) (peptide)
# peptide: cyclo([Ala(Tet)][dF]WR[dPro(cis-4-NH2)][Tic])
# B11: cyclo(-Ala(1Pyraz)-^DPhe-Trp-Arg-^DPro((4R)NH2)-Tic-) (peptide)
# peptide: cyclo([Ala(1Pyraz)][dF]WR[dPro(cis-4-NH2)][Tic])
# Molecular target: chemokine receptor CXCR7 (UniProt P25106 1-362, limits assumed)
# Experiment: cell-based or functional assay
# Sequence of chemokine receptor CXCR7 (P25106 whole entry): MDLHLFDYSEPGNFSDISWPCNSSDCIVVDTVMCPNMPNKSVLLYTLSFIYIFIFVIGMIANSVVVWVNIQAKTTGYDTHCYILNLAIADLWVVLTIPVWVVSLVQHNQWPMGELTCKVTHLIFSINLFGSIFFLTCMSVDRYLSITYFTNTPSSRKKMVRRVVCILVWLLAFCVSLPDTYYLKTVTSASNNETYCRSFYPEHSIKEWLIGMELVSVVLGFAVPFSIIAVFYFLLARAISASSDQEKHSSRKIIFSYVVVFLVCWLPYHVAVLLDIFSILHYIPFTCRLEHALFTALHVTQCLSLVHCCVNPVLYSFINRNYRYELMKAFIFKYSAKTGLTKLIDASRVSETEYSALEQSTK
row,β-Arrestin EC50 [nM],Binder
1,4.5,B1
2,33.4,B2
3,347,B3
4,292,B4
5,209,B5
6,46.9,B6
7,181,B7
8,14,B8
9,145,B9
10,28.1,B10
11,29.9,B11

# — patent publication US20130225506A1 (POLYPHOR, published 2013)
